Literature values in patent publication US6774099B1, “Dishwashing detergent compositions containing mixtures or crystallinity-disrupted surfactants” (The Procter & Gamble Company, priority 1999, dated 2004).

Conditions: enzymes compared at 0.075 to 2.5 mg protein per liter

lard stain removal efficiency, factor over the wild-type lipase: 4.4
B1: D96L: D96L lipolytic enzyme variant of the native lipase derived from Humicola lanuginosa (protein, UniProt O59952 23-291, looked up, variant D96L)
Lipase: EVSQDLFNQFNLFAQYSAAAYCGKNNDAPAGTNITCTGNACPEVEKADATFLYSFEDSGVGDVTGFLALDNTNKLIVLSFRGSRSIENWIGNLNFLLKEINDICSGCRGHDGFTSSWRSVADTLRQKVEDAVREHPDYRVVFTGHSLGGALATVAGADLRGNGYDIDVFSYGAPRVGNRAFAEFLTVQTGGTLYRITHTNDIVPRLPPREFGYSHSSPEYWIKSGTLVPVTRNDIVKIEGIDATGGNNQPNIPDIPAHLWYFGLIGTCL
